Residue numbers refer to the chain shown, from its start. Names may count otherwise.
B1: C2242E1: SEQ ID NO: 42; H244W+T344A+I396K+S193A+N228D+L305F+S306P+I109V+C38R+F55I+V262A+I422V (protein)
chain: MADKNILYGPEPFYPLEDGTAGEQMFDALSRYAAIPGRIALTNAHTKENVLYEEILKLSCRLAESFKKYGLKQNDTIAVCSENSLQFFLPVIASLYLGIIVAPVNDKYVERELIHSLGIVKPRIVFCSKNTFQKVLNVKSKLKSIETIIILDLNEDLGGYQCLNNFISQNSDSNLDVKKFKPYSFNRDDQVAAIMFSSGTTGLPKGVMLTHKNIVARFSIAKDPTFGDAINPTSAILTVIPFHWGFGMMTTLGYFTCGFRVALMHTFEEKLFLQSLQDYKVESTLLVPTLMAFLAKSALVEKYDFPHLKEIASGGAPLSKEIGEMVKKRFKLNFVRQGYGLTEATSAVLITPKGDAKPGSTGKIVPLHAVKVVDPTTGKILGPNEPGELYFKGPMKMKGYYNNEEATKAIIDNDGWLRSGDVAYYDNDGHFYIVDRLKSLIKYKGYQVAPAEIEGILLQHPYIVDAGVTGIPDEAAGELPAAGVVVQTGKYLNEQIVQDYVASQVSTAKWLRGGVKFLDEIPKGSTGKIDRKVLRQMLEKHTNGHHHHHHHH
B2: C2261D1: SEQ ID NO: 52; H244W+T344A+I396K+S193A+N228D+L305F+S306P+I109V+K121Q+V261A+V287I (protein)
chain: B1 chain with R38C, I55F, K121Q, V261A, A262V, V287I, V422I
B3: C2158A3: SEQ ID NO: 45; H244W+T344A+I396K+S193A+N228D+L305F+S306P+I109V+Q487R (protein)
chain: B1 chain with R38C, I55F, A262V, V422I, Q487R
B4: C9715F9: SEQ ID NO: 95; H244W+T344A+1396K+S193A+N228D+L305F+S306P+I109V+C38R+A316W+T342S+V348I+K205N (protein)
chain: B1 chain with I55F, A262V, A316W, T342S, V348I, V422I
B5: C2260B6: SEQ ID NO: 43; H244W+T344A+I396K+S193A+N228D+L305F+S306P+I109V+Y108F+V261A+N427D+F431V (protein)
chain: B1 chain with R38C, I55F, Y108F, V261A, A262V, V422I, N427D, F431V
B6: C9673G4: SEQ ID NO: 96; H244W+T344A+I396K+S193A+N228D+L305F+S306P+I109V+C38R+F55I+A316W+T342S+V348I+I396I (protein)
chain: B1 chain with A262V, A316W, T342S, A344T, V348I, K396I, V422I
B7: C2157D2: SEQ ID NO: 74; H244W+T344A+I396K+S193A+N228D+L305F+S306P+I109V+K107N+T289S (protein)
chain: MADKNILYGPEPFYPLEDGTAGEQMFDALSRYAAIPGCIALTNAHTKENVLYEEFLKLSCRLAESFKKYGLKQNDTIAVCSENSLQFFLPVIASLYLGIIVAPVNDKYIERELIHSLGIVKPRIVFCSKNTFQKVLNVKSKLKSIETIIILDLNEDLGGYQCLNNFISQNSDSNLDVKKFKPYSFNRDDQVASIMFSSGTTGLPKGVMLTHKNIVARFSIAKDPTFGNAINPTSAILTVIPFHHGFGMMTTLGYFTCGFRVVLMHTFEEKLFLQSLQDYKVESTLLVPTLMAFLAKSALVEKYDLSHLKEIASGGAPLSKEIGEMVKKRFKLNFVRQGYGLTETTSAVLITPKGDAKPGSTGKIVPLHAVKVVDPTTGKILGPNEPGELYFKGPMKMKGYYNNEEATKAIIDNDGWLRSGDIAYYDNDGHFYIVDRLKSLIKYKGYQVAPAEIEGILLQHPYIVDAGVTGIPDEAAGELPAAGVVVQTGKYLNEQIVQDYVASQVSTAKWLRGGVKFLDEIPKGSTGKIDRKVLRQMLEKHTNGHHHHHHHH

How the values were obtained:
[1] = Kinetic analysis of ATG-3707 variants with CS0333; format: biochemical
Protocol: Additionally, Table 5 (below) includes kinetic analysis of the ATG-3707 variants identified above. Reagent compositions included CS0333 serially diluted 10-fold from 1 mM to 10 fM in reaction buffer with 2 mM ATP. […] Reactions were incubated at 25° C. for 3 min, and luminescence was read and then normalized to ATG-3707 activity tested in parallel. […] Since C2157D2 was selected for improved brightness in CellTiterGlo® buffer over ATG-3707, it still had beneficial properties.

[2] = Differential scanning fluorimetry (DSF) analysis; format: physicochemical; parameters: key to DSF Tm: melting temperature in °C (heated 30-95 °C at 1 °C/min); details: for DSF Tm: Table 7A; for DSF Tm (° C.): Table 7B
Protocol: (§1) To conduct the experiment, Sypro Orange (5000×) was diluted in water to 3× and combined with enzymes stored in 50 mM HEPES pH 7.5, 100 mM NaCl, 2 mM EDTA to a final concentration of 5×. Fluorescence was read at 60 second intervals as the reactions were heated at 1° C. per minute from 30-95° C. The change in fluorescence at each minute was calculated and plotted for each temperature in the range.
as §1, with “The luciferase enzyme variants generated were also evaluated using DSF analysis as shown in the representative results provided in Tables 7A and 7B above. To” for “To”, “the experiments,” for “the experiment,”, “in 20” for “in 50”, “7.5, 200” for “7.5, 100”, “NaCl, 1” for “NaCl, 2”

[3] = Brightness of additional luciferase enzyme variants with CS0333; format: biochemical; details: for Fold-improvement over ATG3707, CS0333 BG / Fold-improvement over ATG3707, CS0333 DR: Table 7A; for Fold-improvement over ATG3707, CS0333 BG / Fold-improvement over ATG3707, CS0333 DR / luminescence CS0333 BG / luminescence CS0333 DR: 1 mM CS0333; for Fold-improvement over ATG3707, CS0333 BG / luminescence CS0333 BG / Fold improvement over ATG3707, CS0333 BG: Bright-Glo buffer; for Fold-improvement over ATG3707, CS0333 DR / luminescence CS0333 DR / Fold improvement over ATG3707, CS0333 DR: Detection Reagent buffer; for luminescence CS0333 BG / luminescence CS0333 DR / Fold improvement over ATG3707, CS0333 BG / Fold improvement over ATG3707, CS0333 DR: Table 7B
Protocol: (§2) Additional luciferase enzyme variants were generated and evaluated for their stability and activity. To evaluate the additional luciferase enzyme variants, 0.005 mg/ml luciferase enzyme variant was mixed with 1 mM ATP+1 mM substrate in either Bright-Glo™ (BG) or Detection Reagent (DR) buffers. […] (Table 7A is colored according to their relative luminescence values within each column across a red to green color spectrum with the lowest values colored red and the highest values colored green.)

[4] = Brightness of additional luciferase enzyme variants with CS0280; format: biochemical; details: for Fold-improvement over ATG3707, CS0280 BG / Fold-improvement over ATG3707, CS0280 DR: Table 7A; for Fold-improvement over ATG3707, CS0280 BG / Fold-improvement over ATG3707, CS0280 DR / luminescence CS0280 BG / luminescence CS0280 DR: 1 mM CS0280; for Fold-improvement over ATG3707, CS0280 BG / luminescence CS0280 BG / Fold improvement over ATG3707, CS0280 BG: Bright-Glo buffer; for Fold-improvement over ATG3707, CS0280 DR / luminescence CS0280 DR / Fold improvement over ATG3707, CS0280 DR: Detection Reagent buffer; for luminescence CS0280 BG / luminescence CS0280 DR / Fold improvement over ATG3707, CS0280 BG / Fold improvement over ATG3707, CS0280 DR: Table 7B
Protocol: as §2

[5] = Luminescence of ATG-3707 variants (second round epPCR) with CS0333; format: biochemical; details: for Luminescence (RLU) BrightGlo / Normalized Luminescence BrightGlo: BrightGlo buffer; for Luminescence (RLU) BrightGlo / Luminescence (RLU) CellTiterGlo / Luminescence (RLU) Detection Reagent: 25° C., 3 min; for Normalized Luminescence BrightGlo / Normalized Luminescence CellTiterGlo / Normalized Luminescence Detection Reagent: normalized to ATG-3707; for Luminescence (RLU) CellTiterGlo / Normalized Luminescence CellTiterGlo: CellTiterGlo buffer; for Luminescence (RLU) Detection Reagent / Normalized Luminescence Detection Reagent: Detection Reagent buffer
Protocol: Reagent compositions included CS0333 diluted from 20 mM to 2 mM in reaction buffer with 2 mM ATP. […] Reactions were incubated at 25° C. for 3 min, and luminescence was read and then normalized to ATG-3707 activity tested in parallel.

Molecule	Km ([1]; BrightGlo) [µM]	Vmax (RLU) ([1]; BrightGlo)	Km ([1]; Detection Reagent) [µM]	Vmax (RLU) ([1]; Detection Reagent)	DSF Tm [2]	Fold-improvement over ATG3707, CS0333 BG [3]	Fold-improvement over ATG3707, CS0333 DR [3]	Fold-improvement over ATG3707, CS0280 BG [4]	Fold-improvement over ATG3707, CS0280 DR [4]	Luminescence (RLU) BrightGlo [5] [RLU]	Normalized Luminescence BrightGlo [5]	Luminescence (RLU) CellTiterGlo [5] [RLU]	Normalized Luminescence CellTiterGlo [5]	Luminescence (RLU) Detection Reagent [5] [RLU]	Normalized Luminescence Detection Reagent [5]	other results
B1	5.81	7,021,077 RLU	109	5,366,355 RLU	54	1.75	1.63	1.25	1.56	5643850	1.45	708509	1.10	6604720	1.28	–
B2	5.92	4,702,332 RLU	79.8	4,103,451 RLU	54	1.27	1.24	2.02	2.41	3436380	0.88	841889	1.31	4820920	0.93	–
B3	5.15	4,009,543 RLU	101	3,944,016 RLU	61	0.92	1.15	1.30	1.49	3392960	0.87	1027180	1.59	6034440	1.17	–
B4	–	–	–	–	–	–	–	–	–	–	–	–	–	–	–	DSF Tm (° C.) [2]: 68 °C; luminescence CS0333 BG [3]: 18,891,000; luminescence CS0333 DR [3]: 14,484,700; Fold improvement over ATG3707, CS0333 BG [3]: 3.55; Fold improvement over ATG3707, CS0333 DR [3]: 3.40; luminescence CS0280 BG [4]: 2,040,340; luminescence CS0280 DR [4]: 245,081; Fold improvement over ATG3707, CS0280 BG [4]: 2.57; Fold improvement over ATG3707, CS0280 DR [4]: 8.38
B5	4.06	4,439,047 RLU	68.2	4,995,834 RLU	55	0.70	1.00	0.82	0.97	2896240	0.74	921045	1.43	6230440	1.21	–
B6	–	–	–	–	–	–	–	–	–	–	–	–	–	–	–	DSF Tm (° C.) [2]: 71 °C; luminescence CS0333 BG [3]: 18,508,700; luminescence CS0333 DR [3]: 12,268,900; Fold improvement over ATG3707, CS0333 BG [3]: 3.48; Fold improvement over ATG3707, CS0333 DR [3]: 2.88; luminescence CS0280 BG [4]: 1,298,420; luminescence CS0280 DR [4]: 104,671; Fold improvement over ATG3707, CS0280 BG [4]: 1.64; Fold improvement over ATG3707, CS0280 DR [4]: 3.58
B7	6.31	3,053,170 RLU	97.1	3,677,773 RLU	63	1.16	1.52	2.36	3.08	–	–	–	–	–	–	–

Reference: patent US12545899B2, “Luciferase enzymes for use with thermostable luciferins in bioluminescent assays” (Promega Corporation, priority 2018, dated 2026)
